Source: US20190352428A1 (Seagen, published 2019)

Experiments:
CD19 [1] = biological target: CD19 (UniProt P15391); test: cell-based or functional assay
CD19 [2] = biological target: CD19 (UniProt P15391); test: competition FACS, Raji cells; vs parent
CD19 [3] = biological target: CD19 (UniProt P15391); test: competition FACS, Raji cells; unit and quantity not given
CD19 [4] = biological target: T1, CD19 (UniProt P15391 20-556, limits assumed); test: cell-based or functional assay
T1 sequence (looked up): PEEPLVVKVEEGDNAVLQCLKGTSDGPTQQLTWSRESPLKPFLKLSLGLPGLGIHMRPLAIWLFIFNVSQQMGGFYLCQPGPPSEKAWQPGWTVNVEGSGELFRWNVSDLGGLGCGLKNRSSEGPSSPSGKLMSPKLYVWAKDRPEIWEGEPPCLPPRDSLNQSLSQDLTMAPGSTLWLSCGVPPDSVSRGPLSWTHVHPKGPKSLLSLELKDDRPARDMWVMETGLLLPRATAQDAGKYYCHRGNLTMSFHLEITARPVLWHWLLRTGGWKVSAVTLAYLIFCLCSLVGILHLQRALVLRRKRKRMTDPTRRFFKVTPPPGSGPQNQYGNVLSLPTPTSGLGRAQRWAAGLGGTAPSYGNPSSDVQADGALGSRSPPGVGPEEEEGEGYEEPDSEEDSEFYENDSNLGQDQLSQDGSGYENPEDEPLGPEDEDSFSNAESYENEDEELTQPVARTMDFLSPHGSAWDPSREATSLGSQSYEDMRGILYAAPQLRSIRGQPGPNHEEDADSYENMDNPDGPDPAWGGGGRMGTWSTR

CD19 [5] = biological target: T1, CD19; test: FACS competition, Raji cells; fold vs unmasked hBU12ec
Method: (§1) To evaluate cell binding of masked antibodies, 2×10⁵ of indicated cells (Raji, Ramos, PC3, Daudi) were combined with fluorescently labeled parent antibody mixed with serial dilutions of competitor (masked antibody) in staining buffer (PBS, 2% FBS, 0.2% NaN3). Samples were incubated for 1 hour on ice and washed twice with ice-cold staining buffer. Labeled cells were examined by flow cytometry on a BD LSRII gated to exclude nonviable cells and analyzed using Flowing Software (Turku Centre for Biotechnology). The IC50 was calculated using GraphPad Prism 6.
(§2) Activity was tested using the hBU12 antibody, cAg-1, 1C1, HuMab-CD74-011, and an antibody against Antigen 2, designated hAg-2.

CD19 [6] = biological target: T1, CD19; test: FACS competition, Raji cells; fold vs hBU12ec
Method: as §1
(§3) Four antibodies (hBU12 against CD19, anti-Antigen 1 antibody against Antigen 1 (cAg-1), 1C1 against EphA2 and HuMab CD74-011 against CD74) were tested using the coiled coil blocking domains. The antibody CD74 comprises a light chain (SEQ ID NO: 1) and a heavy chain (SEQ ID NO: 2). Sequences for A3B3, A4B4, CVel, antipO, and dHLX were N-terminally fused to the light and heavy chains of the antibodies. To test for binding, FACs-based competition assays were utilized to account for high concentrations of competitor necessary to displace the parent antibody and the results are listed in Tables 2-5. Other antibodies that can be conjugated to a coiled-coil peptide are SEQ ID NOs: 3-19. SEQ ID NO: 3 is the amino acid sequence of hBU12 heavy chain variable region, and SEQ ID NO: 4 is the amino acid sequence of hBU12 light chain variable region. […]

CD74 = biological target: T2, CD74 (UniProt P04233 1-296); test: FACS competition, Daudi cells; fold vs unmasked HuMab-CD74-011
T2 construct: whole, on cells; Target of HuMab-CD74-011
T2 sequence (looked up): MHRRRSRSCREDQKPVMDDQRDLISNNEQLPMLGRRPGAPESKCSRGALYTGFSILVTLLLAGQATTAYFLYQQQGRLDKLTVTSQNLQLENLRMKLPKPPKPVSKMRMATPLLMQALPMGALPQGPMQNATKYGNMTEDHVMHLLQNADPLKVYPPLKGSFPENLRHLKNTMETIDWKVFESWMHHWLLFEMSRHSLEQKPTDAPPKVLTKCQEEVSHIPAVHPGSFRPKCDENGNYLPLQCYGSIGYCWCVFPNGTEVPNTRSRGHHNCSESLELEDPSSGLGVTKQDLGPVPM
Method: as §1, §2

CD19 [7] = biological target: T1, CD19; test: FACS competition with labeled parent hBU12, Raji cells
Method: as §1, §3

B1: Cvel-1910(2) (antibody)
VH: EACGASTSVDELQAEVDQLEDENYALKTKVAQLRKKVEKLGSIPVSLRSGQVQLQESGPGLVKPSQTLSLTCTVSGGSISTSGMGVGWIRQHPGKGLEWIGHIWWDDDKRYNPALKSRVTISVDTSKNQFSLKLSSVTAADTAVYYCARMELWSYYFDYWGQGTLVTVSS
VL: EACGASTTVAQLEEKVKTLRAENYELKSEVQRLEEQVAQLGSIPVSLRSGEIVLTQSPATLSLSPGERATLSCSASSSVSYMHWYQQKPGQAPRLLIYDTSKLASGIPARFSGSGSGTDFTLTISSLEPEDVAVYYCFQGSVYPFTFGQGTKLEIKR
modifications: PBD drug-linker on the engineered cysteine at position 239 of the heavy chain constant region
Binder B1 has a Cytotoxicity Data Fold Change, Ramos cells (CD19 [1]) of 1320 fold, a Cytotoxicity Data IC50 (ng/mL), Ramos cells (CD19 [1]) of 100 ng/mL and a Binding Data (fold decrease per paragraph 159) (CD19 [2]) of over 160 fold. It also gave a Binding Data (CD19 [3]) of over 600.

B2: hBU12ec-1910(2) (antibody, V domains shown)
VH: QVQLQESGPGLVKPSQTLSLTCTVSGGSISTSGMGVGWIRQHPGKGLEWIGHIWWDDDKRYNPALKSRVTISVDTSKNQFSLKLSSVTAADTAVYYCARMELWSYYFDYWGQGTLVTVSS
VL: EIVLTQSPATLSLSPGERATLSCSASSSVSYMHWYQQKPGQAPRLLIYDTSKLASGIPARFSGSGSGTDFTLTISSLEPEDVAVYYCFQGSVYPFTFGQGTKLEIKR
modifications: PBD drug-linker on the engineered cysteine at position 239 of the heavy chain constant region
In the case of B2, the “Cytotoxicity Data IC50 (ng/mL), Ramos cells” value (CD19 [4]) is reported as 0.1 ng/mL.

B3: Cvel hBU12ec (antibody)
VH: B1 VH
VL: B1 VL
notes: the linker/protease site is not restated for this antibody; S239C constant region
B3 was tested, and the “fold decrease in binding” value (CD19 [5]) was over 300 fold and the “Fold Change” value (CD19 [6]) was over 300 fold.

B4: CVel HuMab-CD74-011 (antibody)
heavy: EACGASTSVDELQAEVDQLEDENYALKTKVAQLRKKVEKLGSIPVSLRSGQVQLVESGGGVVQPGRSLRLSCAASGFTFSSYGMHWVRQAPDKGLEWVAVIWYDGSNKYYADSVKGRFTISRDNSKNTLYLQMNSLRAEDTAVYYCARGGTLVRGAMYGTDVWGQGTTVTVSS
light: EACGASTTVAQLEEKVKTLRAENYELKSEVQRLEEQVAQLGSIPVSLRSGDIQMTQSPSSLSASVGDRVTITCRASQGISSWLAWYQQKPEKAPKSLIYAASSLQSGVPSRFSGSGSGTDFTLTISSLQPEDFATYYCQQYNSYPLTFGGGTKVEIK
notes: not restated for this antibody
With B4 the “fold decrease in binding” value (CD74) was 26 fold.

B5: hBU12ec (antibody, V domains shown)
VH: B2 VH
VL: B2 VL
notes: Anti-CD19 antibody; also called parent antibody
Binder B5 has an IC50 (CD19 [7]) of 3.6 nM.
